In the MegaScale stability set (Tsuboyama et al. 2023):

B1: r4_43_TrROS_Hall (parent)
chain: DLVTIKVPLENLEEIKKAAEKAGFKIVSISYDKENKEVTIVIEKKK

Variants of: B1
Assay: folding stability dG (cDNA display proteolysis); higher = more stable
Details: PBS, room temperature

Folding stability dG [kcal/mol], by site and new letter:
K46: P 3.71 | D 3.55 | R 3.68 | E 3.84 | C 3.83 | S 3.72 | N 3.49 | L 3.65 | A 3.52 | I 3.61 | G 3.38 | Q 3.86 | M 3.55 | H 4.17 | F 4.31
I40: F 3.93 | N -0.494 | M 3.77 | H -0.04 | L 3.98 | Y 2.75 | V 3.81 | W 1.82 | S 0.271 | G 0.285 | Q 0.343 | C 2.81 | T 1.73 | A 2.62
T39: E 3.22 | L 3.36 | W 4.01 | Q 3.36 | K 3.42 | P -0.044 | C 3.2 | I 3.66 | V 3.56 | S 3.54 | N 3.14 | H 3.47 | R 3.57 | F 3.69 | M 3.52 | D 3.21 | Y 3.83 | G 2.85 | A 3.4
K45: I 3.87 | Q 3.73 | L 3.95 | F 4.41 | C 3.87 | W 4.49 | S 3.72 | E 3.5 | V 4.13 | T 3.99 | D 3.94 | N 3.84 | P 3.64 | M 3.93 | R 3.94 | H 3.86 | G 3.87 | Y 4.47 | A 3.92
E37: Y 3.9 | S 3.81 | T 3.88 | R 3.53 | W 3.92 | V 4.14
K44: R 3.83 | D 3.54 | C 3.76 | G 3.73 | T 4.11 | F 4.48 | H 3.73 | V 3.92 | A 3.79 | N 3.53 | Y 4.68 | I 3.93 | L 3.96 | W 4.25 | M 3.96 | P 3.55 | E 3.58 | S 3.49 | Q 3.52
V38: Y 4.2 | T 3.23 | H 2.85 | C 3.57 | S 3.12 | W 4.33 | M 3.43 | L 3.71 | F 3.57 | G 3.18 | D 0.46 | R 1.31 | N 2.11 | P 1.79 | I 3.66 | Q 1.74 | A 3.79 | E 0.699 | K 1.02
I42: C 3.24 | M 3.85 | L 3.79 | W 4.19 | Q 2.84 | K 2.34 | Y 4.47 | H 2.83 | T 3.03 | D 0.038 | R 2.38 | S 2.75 | A 3.53 | V 3.46 | E 1.39 | F 4.17 | G 2.97 | P -0.342 | N 0.933
E43: H 3.88 | V 3.63 | L 4.39 | K 3.36 | I 3.54 | S 3.51 | D 3.9 | P 2.34 | R 3.76 | W 4.7 | Y 4.32 | N 3.78 | F 4.59 | M 4.04 | G 3.26 | C 4.02 | A 3.71 | Q 3.64 | T 3.92
V41: L 3.91 | H 3.26 | S 3.51 | E 3.48 | I 3.64 | Y 3.71 | Q 3.5 | N 3.34 | F 3.76 | D 2.77 | R 3.47 | M 3.48 | K 3.47 | G 3.4 | W 4.13 | T 3.42 | A 3.49 | C 3.33
